# Experimental data as given in the supplement of paper PMC10567573.
# B1: ADD1 (parent)
# chain: LRHSFQKQQREKTRWLNSGRGDEA
# Variants of: B1
# Assay: protein stability index of a GFP-peptide fusion (GPS, HEK-293T) (PSI 1-6); higher = more stable
# Settings: c terminus: a fixed tail appended
# 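Also: lentivirally expressed fusions sorted by FACS into six bins by GFP to DsRed ratio, PSI derived from sequencing read proportions per bin multiplied by bin number.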
row,Variant,protein stability index
1,LRHSFQKQQREKTRWLNSVRGDEA,2.82
2,LRHSFQKQQREKTRWLNSHRGDEA,3.56
3,LRHSFQKQQREKTRWLNSPRGDEA,3.65
4,LRHSFQKQQREKTRWLNSARGDEA,3.82
5,LRHSFQKQQREKTRWLNSDRGDEA,4.6
6,LRHSFQKQQREKTRWLNSWRGDEA,2.63
7,LRHSFQKQQREKTRWLNSERGDEA,4.29
8,LRHSFQKQQREKTRWLNSYRGDEA,3
9,LRHSFQKQQREKTRWLNSSRGDEA,3.81
10,LRHSFQKQQREKTRWLNSLRGDEA,3.35
11,LRHSFQKQQREKTRWLNSTRGDEA,3.37
12,LRHSFQKQQREKTRWLNSQRGDEA,3.7
13,LRHSFQKQQREKTRWLNSFRGDEA,2.83
14,LRHSFQKQQREKTRWLNSRRGDEA,3.65
15,LRHSFQKQQREKTRWLNSMRGDEA,3.57
16,LRHSFQKQQREKTRWLNSNRGDEA,3.6
17,LRHSFQKQQREKTRWLNSIRGDEA,2.73
18,LRHSFQKQQREKTRWLNSCRGDEA,2.22
19,LRHSFQKQQREKTRWLNSKRGDEA,3.69
20,LRHSFQKQQREKTRWLASGRGDEA,3.81
21,LRHSFQKQQREKTRWLMSGRGDEA,3.05
22,LRHSFQKQQREKTRWLWSGRGDEA,2.59
23,LRHSFQKQQREKTRWLFSGRGDEA,3.14
24,LRHSFQKQQREKTRWLKSGRGDEA,3.65

row,Variant,protein stability index
1,LRHSFQKQQREKTRWLDSGRGDEA,3.94
2,LRHSFQKQQREKTRWLTSGRGDEA,3.4
3,LRHSFQKQQREKTRWLSSGRGDEA,3.88
4,LRHSFQKQQREKTRWLESGRGDEA,3.95
5,LRHSFQKQQREKTRWLYSGRGDEA,2.91
6,LRHSFQKQQREKTRWLHSGRGDEA,2.54
7,LRHSFQKQQREKTRWLCSGRGDEA,3.15
8,LRHSFQKQQREKTRWLLSGRGDEA,3.05
9,LRHSFQKQQREKTRWLVSGRGDEA,4.03
10,LRHSFQKQQREKTRWLQSGRGDEA,3.83
11,LRHSFQKQQREKTRWLGSGRGDEA,3.82
12,LRHSFQKQQREKTRWLRSGRGDEA,2.49
13,LRHSFQKQQREKTRWLPSGRGDEA,4.03
14,LRHSFQKQQREKTRWLISGRGDEA,2.7
15,LRHSFQKQQREKTRWWNSGRGDEA,2.35
16,LRHSFQKQQREKTRWPNSGRGDEA,4.57
17,LRHSFQKQQREKTRWRNSGRGDEA,4.03
18,LRHSFQKQQREKTRWINSGRGDEA,3.67
19,LRHSFQKQQREKTRWNNSGRGDEA,3.94
20,LRHSFQKQQREKTRWENSGRGDEA,4.72
21,LRHSFQKQQREKTRWCNSGRGDEA,4.06
22,LRHSFQKQQREKTRWQNSGRGDEA,4.01
23,LRHSFQKQQREKTRWYNSGRGDEA,3.42
24,LRHSFQKQQREKTRWANSGRGDEA,3.66

row,Variant,protein stability index
1,LRHSFQKQQREKTRWSNSGRGDEA,4.22
2,LRHSFQKQQREKTRWGNSGRGDEA,4
3,LRHSFQKQQREKTRWFNSGRGDEA,3.28
4,LRHSFQKQQREKTRWDNSGRGDEA,4.69
5,LRHSFQKQQREKTRWKNSGRGDEA,4.22
6,LRHSFQKQQREKTRWHNSGRGDEA,3.42
7,LRHSFQKQQREKTRWMNSGRGDEA,3.88
8,LRHSFQKQQREKTRWTNSGRGDEA,3.57
9,LRHSFQKQQREKFRWLNSGRGDEA,3.29
10,LRHSFQKQQREKRRWLNSGRGDEA,3.83
11,LRHSFQKQQREKIRWLNSGRGDEA,4.01
12,LRHSFQKQQREKSRWLNSGRGDEA,3.36
13,LRHSFQKQQREKMRWLNSGRGDEA,3.25
14,LRHSFQKQQREKPRWLNSGRGDEA,3.52
15,LRHSFQKQQREKYRWLNSGRGDEA,2.93
16,LRHSFQKQQREKLRWLNSGRGDEA,3.54
17,LRHSFQKQQREKVRWLNSGRGDEA,3.26
18,LRHSFQKQQREKWRWLNSGRGDEA,2.58
19,LRHSFQKQQREKCRWLNSGRGDEA,3.6
20,LRHSFQKQQREKNRWLNSGRGDEA,4.27
21,LRHSFQKQQREKQRWLNSGRGDEA,3.2
22,LRHSFQKQQREKERWLNSGRGDEA,4.27
23,LRHSFQKQQREKDRWLNSGRGDEA,4.12
24,LRHSFQKQQREKHRWLNSGRGDEA,3.9

row,Variant,protein stability index
1,LRHSFQKQQREKGRWLNSGRGDEA,4.07
2,LRHSFQKQQREKARWLNSGRGDEA,3.53
3,LRHSFQKQQREKKRWLNSGRGDEA,3.91
4,LRHSFQKQQREMTRWLNSGRGDEA,3.42
5,LRHSFQKQQRESTRWLNSGRGDEA,3.54
6,LRHSFQKQQREPTRWLNSGRGDEA,3.56
7,LRHSFQKQQREWTRWLNSGRGDEA,2.72
8,LRHSFQKQQRENTRWLNSGRGDEA,3.73
9,LRHSFQKQQREYTRWLNSGRGDEA,3.48
10,LRHSFQKQQREQTRWLNSGRGDEA,3.85
11,LRHSFQKQQRELTRWLNSGRGDEA,3.51
12,LRHSFQKQQREDTRWLNSGRGDEA,3.96
13,LRHSFQKQQREFTRWLNSGRGDEA,3.05
14,LRHSFQKQQRECTRWLNSGRGDEA,3.79
15,LRHSFQKQQREETRWLNSGRGDEA,4.24
16,LRHSFQKQQREATRWLNSGRGDEA,4.1
17,LRHSFQKQQREGTRWLNSGRGDEA,4.09
18,LRHSFQKQQREITRWLNSGRGDEA,3.46
19,LRHSFQKQQRERTRWLNSGRGDEA,3.88
20,LRHSFQKQQREHTRWLNSGRGDEA,3.58
21,LRHSFQKQQRETTRWLNSGRGDEA,3.57
22,LRHSFQKQQREVTRWLNSGRGDEA,3.27
